# T1: TNFR1 (Homo sapiens, UniProt P19438)
# T1 chain: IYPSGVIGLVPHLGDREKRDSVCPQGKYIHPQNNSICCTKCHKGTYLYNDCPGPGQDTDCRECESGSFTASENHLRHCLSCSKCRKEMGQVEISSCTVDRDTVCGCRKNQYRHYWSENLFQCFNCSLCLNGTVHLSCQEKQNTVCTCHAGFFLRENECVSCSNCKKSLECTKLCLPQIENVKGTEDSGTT
# Target: T1, TNFR1
# Test: yeast display SC50
row,Binder,apparent Kd (screen) [nM]
1,L96I (designed binder) MTLQELLREEALRRAEAEAFRYALELLAEKFPEQKEYLLDLAEEIESQIRSLSGVDVEDVRKFLDKEWAWVKELLAEHPAELAEVEAARAARLAEIRAEVEAKVAA,0.869
2,R61M (designed binder) MTLQELLREEALRRAEAEAFRYALELLAEKFPEQKEYLLDLAEEIESQIRSLSGVDVEDVMKFLDKEWAWVKELLAEHPAELAEVEAARAARLAELRAEVEAKVAA,0.593
3,E44G (designed binder) MTLQELLREEALRRAEAEAFRYALELLAEKFPEQKEYLLDLAEGIESQIRSLSGVDVEDVRKFLDKEWAWVKELLAEHPAELAEVEAARAARLAELRAEVEAKVAA,20.2
4,Q48T (designed binder) MTLQELLREEALRRAEAEAFRYALELLAEKFPEQKEYLLDLAEEIESTIRSLSGVDVEDVRKFLDKEWAWVKELLAEHPAELAEVEAARAARLAELRAEVEAKVAA,1.54
5,D56L (designed binder) MTLQELLREEALRRAEAEAFRYALELLAEKFPEQKEYLLDLAEEIESQIRSLSGVLVEDVRKFLDKEWAWVKELLAEHPAELAEVEAARAARLAELRAEVEAKVAA,2.73
6,L41Q (designed binder) MTLQELLREEALRRAEAEAFRYALELLAEKFPEQKEYLLDQAEEIESQIRSLSGVDVEDVRKFLDKEWAWVKELLAEHPAELAEVEAARAARLAELRAEVEAKVAA,2.48
7,D65W (designed binder) MTLQELLREEALRRAEAEAFRYALELLAEKFPEQKEYLLDLAEEIESQIRSLSGVDVEDVRKFLWKEWAWVKELLAEHPAELAEVEAARAARLAELRAEVEAKVAA,0.79
8,K30Q (designed binder) MTLQELLREEALRRAEAEAFRYALELLAEQFPEQKEYLLDLAEEIESQIRSLSGVDVEDVRKFLDKEWAWVKELLAEHPAELAEVEAARAARLAELRAEVEAKVAA,0.718
9,E5H (designed binder) MTLQHLLREEALRRAEAEAFRYALELLAEKFPEQKEYLLDLAEEIESQIRSLSGVDVEDVRKFLDKEWAWVKELLAEHPAELAEVEAARAARLAELRAEVEAKVAA,0.49
10,E77C (designed binder) MTLQELLREEALRRAEAEAFRYALELLAEKFPEQKEYLLDLAEEIESQIRSLSGVDVEDVRKFLDKEWAWVKELLACHPAELAEVEAARAARLAELRAEVEAKVAA,1.16
11,L74G (designed binder) MTLQELLREEALRRAEAEAFRYALELLAEKFPEQKEYLLDLAEEIESQIRSLSGVDVEDVRKFLDKEWAWVKEGLAEHPAELAEVEAARAARLAELRAEVEAKVAA,6.43
12,H78G (designed binder) MTLQELLREEALRRAEAEAFRYALELLAEKFPEQKEYLLDLAEEIESQIRSLSGVDVEDVRKFLDKEWAWVKELLAEGPAELAEVEAARAARLAELRAEVEAKVAA,0.593
13,A105V (designed binder) MTLQELLREEALRRAEAEAFRYALELLAEKFPEQKEYLLDLAEEIESQIRSLSGVDVEDVRKFLDKEWAWVKELLAEHPAELAEVEAARAARLAELRAEVEAKVVA,0.718
14,I45F (designed binder) MTLQELLREEALRRAEAEAFRYALELLAEKFPEQKEYLLDLAEEFESQIRSLSGVDVEDVRKFLDKEWAWVKELLAEHPAELAEVEAARAARLAELRAEVEAKVAA,3.63

# — paper PMC12416549 (2024)
